Source: patent publication US20110136740A1 (Stanford University, published 2011)
Ends that are not written are not given here.

How the values were obtained:
[1] = biological target: αIIbβ3 integrin on human platelets (human) (UniProt P08514); test: cell-based or functional assay
[2] = biological target: αIIbβ3 integrin on human platelets (human, UniProt P08514 32-1039; P05106 27-788); test: cell-based or functional assay
[3] = biological target: T1, αvβ5 integrin expressed on K562-αvβ5 cells (UniProt P06756 31-1048; P18084 24-799); test: flow cytometry, direct binding to K562-αvβ5 cells
T1 construct: whole, on cells

[4] = biological target: T2, α5β1 integrin naturally expressed on wild-type K562 cells (UniProt P08648 42-1049; P05556 21-798); test: flow cytometry, direct binding to wild-type K562 cells
T2 construct: whole, on cells

[5] = biological target: T3, αvβ3 integrin expressed on K562-αvβ3 cells (UniProt P06756 31-1048; P05106 27-788); test: flow cytometry, direct binding to K562-αvβ3 cells, anti-His detection
T3 construct: whole, on cells

[6] = biological target: T4, αIIbβ3 integrin expressed on K562-αIIbβ3 cells (UniProt P08514 32-1039; P05106 27-788); test: flow cytometry, peptide titrated on K562-αIIbβ3 cells, anti-His detection
T4 construct: whole, on cells; also called cell surface expressed αIIbβ3 integrin; GPIIb-IIIa

[7] = biological target: T3, αvβ3 integrin expressed on K562-αvβ3 …; test: flow cytometry, peptide titrated on K562-αvβ3 cells
[8] = biological target: T3, αvβ3 integrin expressed on K562-αvβ3 …; test: flow cytometry, peptide titrated on K562-αvβ3 cells, anti-His detection

T1 sequence (P06756 31-1048, chain 1 of 2): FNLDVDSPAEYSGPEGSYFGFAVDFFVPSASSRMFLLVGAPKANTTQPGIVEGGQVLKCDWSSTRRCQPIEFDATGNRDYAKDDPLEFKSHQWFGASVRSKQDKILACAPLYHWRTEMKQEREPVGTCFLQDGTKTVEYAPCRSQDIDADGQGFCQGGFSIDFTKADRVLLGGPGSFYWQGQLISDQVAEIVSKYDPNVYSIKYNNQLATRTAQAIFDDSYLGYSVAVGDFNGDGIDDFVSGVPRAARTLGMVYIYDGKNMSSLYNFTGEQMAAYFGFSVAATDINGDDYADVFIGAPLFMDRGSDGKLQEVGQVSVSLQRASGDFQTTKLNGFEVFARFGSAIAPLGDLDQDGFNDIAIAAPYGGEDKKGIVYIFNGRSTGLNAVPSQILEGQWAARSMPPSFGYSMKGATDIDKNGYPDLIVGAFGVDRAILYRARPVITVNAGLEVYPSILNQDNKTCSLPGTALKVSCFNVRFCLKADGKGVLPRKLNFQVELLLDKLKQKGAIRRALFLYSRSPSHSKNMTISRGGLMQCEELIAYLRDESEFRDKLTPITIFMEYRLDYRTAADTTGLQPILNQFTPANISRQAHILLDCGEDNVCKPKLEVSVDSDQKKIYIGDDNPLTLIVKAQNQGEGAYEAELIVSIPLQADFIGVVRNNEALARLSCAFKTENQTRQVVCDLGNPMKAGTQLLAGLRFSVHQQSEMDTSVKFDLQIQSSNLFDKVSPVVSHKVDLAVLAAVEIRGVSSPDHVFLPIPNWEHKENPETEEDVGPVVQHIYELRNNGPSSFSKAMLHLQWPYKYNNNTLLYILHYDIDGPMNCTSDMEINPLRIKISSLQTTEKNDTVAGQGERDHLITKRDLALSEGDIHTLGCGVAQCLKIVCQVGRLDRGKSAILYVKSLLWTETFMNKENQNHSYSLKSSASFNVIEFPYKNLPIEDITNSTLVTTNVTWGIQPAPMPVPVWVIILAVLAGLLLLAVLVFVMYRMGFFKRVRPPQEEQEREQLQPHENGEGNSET
T1 sequence (P18084 24-799, chain 2 of 2): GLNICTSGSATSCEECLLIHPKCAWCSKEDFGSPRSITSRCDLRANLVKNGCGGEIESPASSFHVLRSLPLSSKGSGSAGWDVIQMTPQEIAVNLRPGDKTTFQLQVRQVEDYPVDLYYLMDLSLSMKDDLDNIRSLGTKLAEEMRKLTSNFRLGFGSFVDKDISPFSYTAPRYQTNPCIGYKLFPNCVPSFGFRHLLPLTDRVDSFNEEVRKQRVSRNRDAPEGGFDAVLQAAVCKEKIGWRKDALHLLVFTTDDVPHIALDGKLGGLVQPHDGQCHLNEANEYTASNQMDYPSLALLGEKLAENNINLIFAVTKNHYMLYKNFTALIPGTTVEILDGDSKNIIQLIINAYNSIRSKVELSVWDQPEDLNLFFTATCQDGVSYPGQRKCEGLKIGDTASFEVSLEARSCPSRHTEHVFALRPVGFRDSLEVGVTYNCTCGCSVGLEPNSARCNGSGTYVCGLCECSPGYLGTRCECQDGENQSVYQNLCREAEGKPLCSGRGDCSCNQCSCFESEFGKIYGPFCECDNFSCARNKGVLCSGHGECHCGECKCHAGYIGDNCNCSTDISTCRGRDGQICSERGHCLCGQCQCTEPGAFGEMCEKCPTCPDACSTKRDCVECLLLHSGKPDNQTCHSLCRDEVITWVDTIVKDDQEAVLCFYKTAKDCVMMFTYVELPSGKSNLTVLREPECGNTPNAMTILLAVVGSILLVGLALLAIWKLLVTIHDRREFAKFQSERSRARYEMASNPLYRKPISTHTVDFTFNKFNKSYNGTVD
T3 sequence (P06756 31-1048, chain 1 of 2): as the sequence (P06756 31-1048, chain 1 of 2) above
T3 sequence (P05106 27-788, chain 2 of 2): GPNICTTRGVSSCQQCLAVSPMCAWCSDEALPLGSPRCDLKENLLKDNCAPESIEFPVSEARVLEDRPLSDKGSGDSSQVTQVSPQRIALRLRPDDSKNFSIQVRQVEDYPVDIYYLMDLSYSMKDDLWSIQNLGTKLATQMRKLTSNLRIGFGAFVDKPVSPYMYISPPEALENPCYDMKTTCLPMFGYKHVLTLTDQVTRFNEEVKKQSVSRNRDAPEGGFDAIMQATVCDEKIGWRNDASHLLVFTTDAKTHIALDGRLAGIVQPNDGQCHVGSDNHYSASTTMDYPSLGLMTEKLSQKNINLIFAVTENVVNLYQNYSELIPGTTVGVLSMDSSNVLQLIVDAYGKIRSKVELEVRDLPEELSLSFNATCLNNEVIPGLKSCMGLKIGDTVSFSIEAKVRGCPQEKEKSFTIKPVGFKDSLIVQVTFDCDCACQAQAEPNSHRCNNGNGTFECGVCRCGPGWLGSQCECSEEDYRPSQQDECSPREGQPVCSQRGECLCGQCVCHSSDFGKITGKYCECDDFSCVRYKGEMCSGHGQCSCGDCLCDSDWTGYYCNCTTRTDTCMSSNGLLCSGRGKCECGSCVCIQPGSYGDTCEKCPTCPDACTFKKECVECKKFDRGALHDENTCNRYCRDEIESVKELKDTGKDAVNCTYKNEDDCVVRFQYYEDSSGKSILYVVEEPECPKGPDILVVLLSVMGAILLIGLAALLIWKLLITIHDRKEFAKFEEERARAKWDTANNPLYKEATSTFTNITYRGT
T2 sequence (P08648 42-1049, chain 1 of 2): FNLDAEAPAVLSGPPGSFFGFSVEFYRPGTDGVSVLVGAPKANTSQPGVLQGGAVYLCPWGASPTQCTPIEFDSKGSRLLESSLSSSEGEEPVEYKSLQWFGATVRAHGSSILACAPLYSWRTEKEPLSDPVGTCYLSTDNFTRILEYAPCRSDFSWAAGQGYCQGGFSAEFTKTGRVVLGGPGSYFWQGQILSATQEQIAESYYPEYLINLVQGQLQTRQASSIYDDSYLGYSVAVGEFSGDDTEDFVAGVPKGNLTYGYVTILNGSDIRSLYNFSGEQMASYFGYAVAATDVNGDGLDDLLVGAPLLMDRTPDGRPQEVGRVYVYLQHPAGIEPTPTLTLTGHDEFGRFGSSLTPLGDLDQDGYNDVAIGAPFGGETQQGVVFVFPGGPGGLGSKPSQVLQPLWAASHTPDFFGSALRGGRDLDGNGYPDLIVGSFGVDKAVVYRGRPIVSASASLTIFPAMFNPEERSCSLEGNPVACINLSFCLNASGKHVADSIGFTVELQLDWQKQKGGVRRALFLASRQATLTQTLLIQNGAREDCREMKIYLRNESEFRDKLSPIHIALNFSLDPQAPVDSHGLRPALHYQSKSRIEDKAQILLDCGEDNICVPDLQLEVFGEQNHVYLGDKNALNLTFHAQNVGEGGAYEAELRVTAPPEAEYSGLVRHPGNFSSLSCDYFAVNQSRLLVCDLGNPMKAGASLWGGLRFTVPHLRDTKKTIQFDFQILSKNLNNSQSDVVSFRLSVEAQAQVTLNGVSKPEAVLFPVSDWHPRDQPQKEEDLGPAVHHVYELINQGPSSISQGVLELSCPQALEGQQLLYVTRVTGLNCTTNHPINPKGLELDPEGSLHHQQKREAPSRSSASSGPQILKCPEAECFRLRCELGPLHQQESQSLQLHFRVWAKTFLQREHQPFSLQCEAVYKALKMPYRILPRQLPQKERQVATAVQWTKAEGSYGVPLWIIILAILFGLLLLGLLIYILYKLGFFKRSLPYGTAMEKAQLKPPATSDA
T2 sequence (P05556 21-798, chain 2 of 2): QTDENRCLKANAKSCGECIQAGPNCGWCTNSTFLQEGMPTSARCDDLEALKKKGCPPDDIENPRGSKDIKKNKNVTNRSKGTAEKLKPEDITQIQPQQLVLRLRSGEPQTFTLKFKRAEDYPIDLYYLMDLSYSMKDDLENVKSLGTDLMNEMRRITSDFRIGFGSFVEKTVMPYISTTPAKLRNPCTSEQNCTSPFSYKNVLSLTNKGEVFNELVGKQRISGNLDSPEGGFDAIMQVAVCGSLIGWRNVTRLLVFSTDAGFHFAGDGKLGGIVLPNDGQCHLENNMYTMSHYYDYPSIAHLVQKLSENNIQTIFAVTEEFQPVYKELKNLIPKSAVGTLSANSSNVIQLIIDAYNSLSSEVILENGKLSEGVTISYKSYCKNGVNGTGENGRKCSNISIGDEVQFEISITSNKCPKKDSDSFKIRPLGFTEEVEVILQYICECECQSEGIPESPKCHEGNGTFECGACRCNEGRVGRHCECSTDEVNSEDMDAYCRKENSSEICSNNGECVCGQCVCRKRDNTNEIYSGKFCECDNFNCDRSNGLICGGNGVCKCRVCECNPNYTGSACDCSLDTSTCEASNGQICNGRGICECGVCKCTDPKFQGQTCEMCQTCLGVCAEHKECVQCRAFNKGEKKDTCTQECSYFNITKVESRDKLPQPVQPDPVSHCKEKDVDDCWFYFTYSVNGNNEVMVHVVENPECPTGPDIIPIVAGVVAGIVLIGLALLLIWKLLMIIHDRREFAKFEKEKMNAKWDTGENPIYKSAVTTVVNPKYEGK

| Molecule | aggregation (IC50; nM), human platelets [1] | inhibition of ADP-induced platelet aggregation, IC50 [1] | aggregation (IC50; nM), human platelets [2] | binding result [3] | binding result [4] | binding result [5] | Kd [6] | Kd [7] | Kd [8] |
| --- | --- | --- | --- | --- | --- | --- | --- | --- | --- |
| eptifibatide (peptide) | 94 nM | 80 nM |  |  |  |  |  |  |  |
| engineered AgRP peptide 2bA (soluble, N-terminal FLAG tag and C-terminal hexahistidine tag) (ends and bridges not checked; cysteine pairing not given here, also called clone 2bA; αIIbβ3-specific peptide 2bA) DYKDDDDKGCVRLHESCLGQQVPCCDPAATCYCLKRGDWKGKCYCRHHHHHH |  |  | 72 nM | no binding (tested: 1 µM) | no binding (tested: 1 µM) | no binding (tested: 1 µM) | 87 nM |  |  |
| engineered AgRP peptide 2bJ (soluble, N-terminal FLAG tag and C-terminal hexahistidine tag) (ends and bridges not checked; cysteine pairing not given here, also called clone 2bJ; αIIbβ3-specific peptide 2bJ) DYKDDDDKGCVRLHESCLGQQVPCCDPAATCYCNKRGDWRSKCYCRHHHHHH |  |  | 91 nM | no binding (tested: 1 µM) | no binding (tested: 1 µM) | no binding (tested: 1 µM) | 59 nM |  |  |
| engineered AgRP peptide b3I (soluble, N-terminal FLAG tag and C-terminal hexahistidine tag) (ends and bridges not checked; cysteine pairing not given here, also called clone b3I; β3-specific peptide b3I) DYKDDDDKGCVRLHESCLGQQVPCCDPAATCYCRGRGDVKLRCYCRHHHHHH |  |  | 66 nM | no binding (tested: 1 µM) | no binding (tested: 1 µM) |  | 70 nM | ~25 nM | 28 nM |
| engineered AgRP peptide b3A (soluble, N-terminal FLAG tag and C-terminal hexahistidine tag) (ends and bridges not checked; cysteine pairing not given here, also called clone b3A; β3-specific peptide b3A) DYKDDDDKGCVRLHESCLGQQVPCCDPAATCYCVGRGDVRRKCYCRHHHHHH |  |  | 50 nM | no binding (tested: 1 µM) | no binding (tested: 1 µM) |  | 42 nM | ~25 nM | 23 nM |
| engineered AgRP peptide 2bO (soluble, N-terminal FLAG tag and C-terminal hexahistidine tag) (ends and bridges not checked; cysteine pairing not given here, also called clone 2bO; αIIbβ3-specific peptide 2bO) DYKDDDDKGCVRLHESCLGQQVPCCDPAATCYCKKRGDWKERCYCRHHHHHH |  |  | 110 nM | no binding (tested: 1 µM) | no binding (tested: 1 µM) | no binding (tested: 1 µM) | 87 nM |  |  |
